Experimental data reported in PMC3675495.

Target: Su(Hw) (Drosophila (endogenous in embryo nuclear extract)) (UniProt P08970)
Assay: co-IP

UniProt P08970, sequence (P08970 whole entry): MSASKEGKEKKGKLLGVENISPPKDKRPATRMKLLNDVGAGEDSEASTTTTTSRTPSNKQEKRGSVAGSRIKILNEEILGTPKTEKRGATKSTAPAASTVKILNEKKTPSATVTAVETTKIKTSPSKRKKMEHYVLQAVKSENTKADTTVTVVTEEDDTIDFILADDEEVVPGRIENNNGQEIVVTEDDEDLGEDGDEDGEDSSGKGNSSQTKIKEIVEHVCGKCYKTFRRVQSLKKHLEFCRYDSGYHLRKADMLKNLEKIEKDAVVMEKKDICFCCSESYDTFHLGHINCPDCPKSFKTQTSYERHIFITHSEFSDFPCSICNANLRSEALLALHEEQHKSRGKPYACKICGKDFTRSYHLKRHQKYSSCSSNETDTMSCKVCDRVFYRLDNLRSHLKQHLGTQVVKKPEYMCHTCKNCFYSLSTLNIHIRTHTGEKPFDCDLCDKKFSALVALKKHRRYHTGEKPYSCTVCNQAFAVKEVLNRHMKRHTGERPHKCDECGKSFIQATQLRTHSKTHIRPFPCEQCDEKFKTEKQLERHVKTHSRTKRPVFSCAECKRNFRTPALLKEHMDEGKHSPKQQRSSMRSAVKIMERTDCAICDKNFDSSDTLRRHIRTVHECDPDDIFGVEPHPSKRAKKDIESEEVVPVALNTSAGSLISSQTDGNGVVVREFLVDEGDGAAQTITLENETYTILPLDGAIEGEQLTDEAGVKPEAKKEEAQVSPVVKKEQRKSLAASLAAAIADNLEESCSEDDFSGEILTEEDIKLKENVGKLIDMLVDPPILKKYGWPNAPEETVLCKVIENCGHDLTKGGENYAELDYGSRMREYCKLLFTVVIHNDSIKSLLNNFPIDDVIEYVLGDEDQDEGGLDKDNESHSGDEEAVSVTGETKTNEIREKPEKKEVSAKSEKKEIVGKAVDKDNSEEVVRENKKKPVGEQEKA

percent co-precipitated: 0.5%
Substance: OSA, Q8IN94 1-2716
